# In patent US20060134087A1, “ITI-D1 Kunitz domain mutants as hNE inhibitors” (Dyax Corp., priority 1988, published 2006):
# Where “and” joins values, the source holds several entries; their conditions need not be identical. Equal entries are not always repeated.
# Molecular target: T1, agarose-immobilized hNE beads (Homo sapiens, UniProt P08246)
# T1 sequence (P08246 30-267): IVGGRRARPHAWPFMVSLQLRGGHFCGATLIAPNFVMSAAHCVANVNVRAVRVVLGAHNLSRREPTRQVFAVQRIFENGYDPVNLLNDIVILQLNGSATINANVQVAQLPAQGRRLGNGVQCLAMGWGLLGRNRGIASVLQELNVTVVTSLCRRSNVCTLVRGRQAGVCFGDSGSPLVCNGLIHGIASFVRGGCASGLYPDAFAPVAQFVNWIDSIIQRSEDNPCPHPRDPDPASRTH
# Assay: pH fractionation of display phage on agarose-immobilized hNE beads
# Assay type: binding
# Design: Fraction of Input recovered at pH7.0: scale not given here
# Conditions: for Recovery Total: total fraction of input; for reduction of display phage binding to hNE-beads / effect of change on binding of display phage to hNE-beads: relative to parental MA-BITI-E7-141; for fraction of input: abbreviated fractionation
# Description: For the purpose of simultaneously assessing the affinity of a large number of different BPTI and ITI-D1 muteins, DNA sequences encoding the BPTI or ITI-D1 was incorporated into the genome of the bacteriophage M13. […] Alterations in the KuDom amino acid sequence were introduced. Each pure population of phage displaying a particular KuDom was characterized with regard to its interactions with immobilized hNE or hCG. Based on comparison to the pH elution profiles of phage displaying other KuDoms of known affinities for the particular protease, mutant KuDoms having high affinity for the target proteases were identified. Subsequently, the sequences of these mutant KuDoms were determined (typically by sequencing the corresponding DNA sequence).
# To test if phage displaying the ITI-D1::III fusion protein interact strongly with the proteases human neutrophil elastase (hNE), aliquots of display phage were incubated with agarose-immobilized hNE beads (“hNE beads”). The beads were washed and bound phage eluted by pH fractionation as described in U.S. Pat. No. 5,223,409. The pHs used in the step gradient were 7.0, 6.0, 5.5, 5.0, 4.5, 4.0, 3.5, 3.0, 2.5, and 2.0. Following elution and neutralization, the various input, wash, and pH elution fractions were titered. Phage displaying ITI-D1 were compared to phage that display EpiNE-7.
# To test if ITI-D1E7-display phage bind hNE beads, pH elution profiles were measured. Aliquots of EpiNE-7, MA-ITI-D1, and MA-ITI-D1E7 display phage were incubated with hNE beads for three hours at room temperature (RT). The beads were washed and phage were eluted as described in U.S. Pat. No. 5,223,409, except that only three pH elutions were performed. […] The pH elution profile of EpiNE-7 display phage is as described. MA-ITI-D1E7 phage show a broad elution maximum around pH 5. The total fraction of MA-ITI-D1E7 phage obtained on pH elution from hNE beads was about 40-fold less than that obtained using EpiNE-7 display phage.
# We characterized the binding properties to hNE-beads of MA-BITI and MA-BITI-E7 display phage using the extended pH fractionation procedure described in U.S. Pat. No. 5,223,409.
# The binding capacity of hNE-beads for display phage varies among preparations of beads and with age for each individual preparation of beads. Thus, it is difficult to directly compare absolute yields of phage from elutions performed at different times. For example, the fraction of MA-EpiNE7 display phage recovered from hNE-beads varies two-fold among the experiments shown in Tables 14, 16, and 17. However, the shapes of the pH elution profiles are similar. It is possible to correct somewhat for variations in binding capacity of hNE-beads by normalizing display phage yields to the total yield of MA-EpiNE7 phage recovered from the beads in a concurrent elution. When the data shown in Tables 14, 16, and 17 are so normalized, the recoveries of display phage, relative to recovered MA-EpiNE7, are shown in Table 3.
# ITI-D1 derivative BITI-E7-1222 is BITI-E7 with the alteration A11T. ITI-D1 derivative BITI-E7-141 is BITI-E7 with the alterations E31Q and Q34V; phage that display the presence of these proteins are MA-BITI-E7-1222 and MA-BITI-E7-141. We determined the binding properties to hNE-beads of MA-BITI-E7-1222 and MA-BITI-E7-141 display phage using the extended pH fractionation protocol described previously. The results are in Tables 18 (for MA-BITI-E7 and MA-BITI-E7-1222) and 19 (for MA-EpiNE7 and MA-BITI-E7-141). The pH elution profiles for the MA-BITI-E7 and MA-BITI-E7-1222 phage are almost identical.
# Total pfu applied to the beads are in column two. The fractions of this input pfu recovered in each pH fraction of the abbreviated pH elution protocol (pH 7.0, pH 3.5, and pH 2.0) are in the next three columns. […]
# [1] = EE extended pH elution protocol
# [2] = EE, sum of pH 3.0, 2.5, 2.0 samples
# [3] = EE, sum of pH 6.0 to pH 3.5 samples
# [4] = AE abbreviated pH elution protocol
# [5] = SUM of all pH elution fractions
# [6] = extended protocol, final TBS-TWEEN wash
# [7] = extended protocol, pH 3.0 fraction
# [8] = extended protocol, pH 4.0 fraction
# [9] = extended protocol, pH 4.5 fraction
# [10] = extended protocol, pH 5.0 fraction
# [11] = extended protocol, pH 5.5 fraction
# [12] = extended protocol, pH 7.0 fraction
substance,measurement,setting,value
"AMINO1: ITI-D1 derivative carrying K1-E2, SEQ ID NO 022 (KEDFCQLGYSAGPCVAMFPRYFYNGTSMACETFQYGGCMGNGNNFVTEKDCLQTCRGA; AMINO1)",Fraction of Input recovered at pH7.0,[1],0.24
same,Fraction of Input recovered at pH2.0,[2],0.35 ×10^−4
same,Fraction of Input recovered at pH3.5,[3],2.3 ×10^−4
same,Recovery Total,EE,2.9 ×10^−4
same,reduction of display phage binding to hNE-beads,,at least ten fold
"AMINO2: ITI-D1 derivative carrying K1-S4, SEQ ID NO 023 (KPDSCQLGYSAGPCVAMFPRYFYNGTSMACETFQYGGCMGNGNNFVTEKDCLQTCRGA; AMINO2)",Fraction of Input recovered at pH2.0,[4],0.45 ×10^−4
same,Fraction of Input recovered at pH3.5,[4],2.1 ×10^−4
same,Fraction of Input recovered at pH7.0,[4],0.57
same,Recovery Total,AE,3.1 ×10^−4
same,reduction of display phage binding to hNE-beads,,at least ten fold
BITI-E7-141: BITI-E7 with the alterations E31Q and Q34V; SEQ ID NO 017 (RPDFCQLGYSAGPCVAMFPRYFYNGTSMACQTFVYGGCMGNGNNFVTEKDCLQTCRGA; BITI-E7-141),fold greater affinity for hNE than BITI-E7,,approximately 100 fold
same,Fraction of Input recovered at pH2.0,[4],5.4 ×10^−4
same,Fraction of Input recovered at pH3.5,[4],18.0 ×10^−4
same,Fraction of Input recovered at pH7.0,[4],2.2
same,Recovery Total,AE,26.0 ×10^−4
same,Fraction of Input recovered at pH7.0,[1],2.1
same,Fraction of Input recovered at pH2.0,[2],3.2 ×10^−4
same,Fraction of Input recovered at pH3.5,[3],21. ×10^−4
same,Recovery Total,EE,26.0 ×10^−4
same,Fraction of Input bound,range of the affinity class,>0.1%
same,pH Elution Maximum,range of the affinity class,≦4.0 pH
BITI-E7-1222: BITI-E7 with the alteration A11T; SEQ ID NO 143 (RPDFCQLGYSTGPCVAMFPRYFYNGTSMACETFQYGGCMGNGNNFVTEKDCLQTCRGA; BITI-E7-1222),Fraction of Input recovered at pH7.0,[1],0.72
same,Fraction of Input recovered at pH2.0,[2],0.64 ×10^−4
same,Fraction of Input recovered at pH3.5,[3],4.0 ×10^−4
same,Recovery Total,EE,5.4 ×10^−4
"BITI-E7: ITI-D1E7 with K1R, E2P and S4F; SEQ ID NO 142 (RPDFCQLGYSAGPCVAMFPRYFYNGTSMACETFQYGGCMGNGNNFVTEKDCLQTCRGA; BITI-E7)",fold greater affinity for hNE than ITI-D1E7,,ten-fold
"EpiNE7: BPTI-derived Kunitz domain, SEQ ID NO 009; in Tables 14-16 the phage displaying it",fold greater affinity for hNE than ITI-D1E7,,roughly 1000 fold
same,Fraction of Input recovered at pH7.0,[1],0.44
same,Fraction of Input recovered at pH2.0,[2],2.2 ×10^−4
same,Fraction of Input recovered at pH3.5,[3],6.4 ×10^−4
same,Recovery Total,EE,9.0 ×10^−4
same,pfu,[5],6.4 · 10^6 pfu and 7.6 · 10^6 pfu
same,pfu/INPUT (fraction of input),[5],3 · 10^−3 and 4.1 · 10^−3
same,fraction of input,[5],4.3 · 10^−3
same,fraction of input,Wash,6 · 10^−5
same,fraction of input,pH 2.0,1 · 10^−3
same,fraction of input,pH 3.5,3 · 10^−3
same,fraction of input,pH 7.0,3 · 10^−4
same,total fraction of input phage eluted from hNE beads,all pH elution fractions,About 0.3%
same,pH Elution Maximum,display phage on hNE beads,~4.0 pH
same,pfu,[6],3.8 · 10^5 pfu
same,pfu/INPUT (fraction of input),[6],1.2 · 10^−4
same,pfu,"extended protocol, pH 2.0 fraction",3.0 · 10^5 pfu and 2.9 · 10^5 pfu
same,pfu,"extended protocol, pH 2.5 fraction",1.6 · 10^5 pfu and 2.8 · 10^5 pfu
same,pfu,[7],6.6 · 10^5 pfu and 3.8 · 10^5 pfu
same,pfu/INPUT (fraction of input),[7],2.0 · 10^−4 and 2.1 · 10^−4
same,pfu,[8],1.6 · 10^6 pfu and 1.7 · 10^6 pfu
same,pfu/INPUT (fraction of input),[8],4.8 · 10^−4 and 9.4 · 10^−4
same,pfu,[9],1.2 · 10^6 pfu and 1.1 · 10^6 pfu
same,pfu/INPUT (fraction of input),[9],3.5 · 10^−4 and 6.1 · 10^−4
same,pfu,[10],9.5 · 10^5 pfu and 8.4 · 10^5 pfu
same,pfu/INPUT (fraction of input),[10],2.9 · 10^−4 and 4.7 · 10^−4
same,pfu,[11],9.4 · 10^5 pfu and 7.8 · 10^5 pfu
same,pfu/INPUT (fraction of input),[11],2.8 · 10^−4 and 4.3 · 10^−4
same,pfu/INPUT (fraction of input),"extended protocol, pH 6.0 fraction",4.1 · 10^−4 and 3.6 · 10^−4
same,pfu,[12],6.2 · 10^5 pfu and 5.2 · 10^5 pfu
same,pfu/INPUT (fraction of input),[12],1.8 · 10^−4 and 2.9 · 10^−4
"ITI-D1E7: ITI-D1 with EpiNE-7 sequence at positions 15-20, SEQ ID NO 021 (KEDSCQLGYSAGPCVAMFPRYFYNGTSMACETFQYGGCMGNGNNFVTEKDCLQTCRGA; ITI-D1E7)",estimated affinity of free protein for hNE,estimated from pH elution profile of display phage,in the nM range
MUT1619: BITI-E7-141 with ITI-D1 residues restored at 16 and 19; SEQ ID NO 020 (RPDFCQLGYSAGPCVGMFSRYFYNGTSMACQTFVYGGCMGNGNNFVTEKDCLQTCRGA; MUT1619),Fraction of Input recovered at pH7.0,[1],0.82
same,Fraction of Input recovered at pH2.0,[2],0.84 ×10^−4
same,Fraction of Input recovered at pH3.5,[3],9.9 ×10^−4
same,Recovery Total,EE,12.0 ×10^−4
same,Fraction of Input bound,range of the affinity class,>0.1%
same,pH Elution Maximum,range of the affinity class,≦4.0 pH
"MUTP1: ITI-D1 derivative asserting I15, G16, S19; SEQ ID NO 024 (RPDFCQLGYSAGPCIGMFSRYFYNGTSMACETFQYGGCMGNGNNFVTEKDCLQTCRGA; MUTP1)",Fraction of Input recovered at pH2.0,[4],1.2 ×10^−4
same,Fraction of Input recovered at pH3.5,[4],9.2 ×10^−4
same,Fraction of Input recovered at pH7.0,[4],1.8
same,Recovery Total,AE,12.0 ×10^−4
MUTQE: BITI-E7-141 with Q31E; SEQ ID NO 019 (RPDFCQLGYSAGPCVAMFPRYFYNGTSMACETFVYGGCMGNGNNFVTEKDCLQTCRGA; MUTQE),Fraction of Input recovered at pH2.0,[4],5.3 ×10^−4
same,Fraction of Input recovered at pH3.5,[4],16. ×10^−4
same,Fraction of Input recovered at pH7.0,[4],1.2
same,Recovery Total,AE,22.0 ×10^−4
same,Fraction of Input bound,range of the affinity class,>0.1%
same,pH Elution Maximum,range of the affinity class,≦4.0 pH
same,effect of change on binding of display phage to hNE-beads,,little effect
MUTT26A: BITI-E7-141 with T26A; SEQ ID NO 018 (RPDFCQLGYSAGPCVAMFPRYFYNGASMACQTFVYGGCMGNGNNFVTEKDCLQTCRGA; MUTT26A),Fraction of Input recovered at pH7.0,[1],2.5
same,Fraction of Input recovered at pH2.0,[2],3.3 ×10^−4
same,Fraction of Input recovered at pH3.5,[3],19.0 ×10^−4
same,Recovery Total,EE,25.0 ×10^−4
same,Fraction of Input bound,range of the affinity class,>0.1%
same,pH Elution Maximum,range of the affinity class,≦4.0 pH
same,effect of change on binding of display phage to hNE-beads,,little effect
